# From patent publication US20140314789
# Target: Flag-tagged calcineurin-defective (ΔCalna) CRTC2 (UniProt Q3U182)
# Sequence (Q3U182 whole entry, looked up, stated change not applied): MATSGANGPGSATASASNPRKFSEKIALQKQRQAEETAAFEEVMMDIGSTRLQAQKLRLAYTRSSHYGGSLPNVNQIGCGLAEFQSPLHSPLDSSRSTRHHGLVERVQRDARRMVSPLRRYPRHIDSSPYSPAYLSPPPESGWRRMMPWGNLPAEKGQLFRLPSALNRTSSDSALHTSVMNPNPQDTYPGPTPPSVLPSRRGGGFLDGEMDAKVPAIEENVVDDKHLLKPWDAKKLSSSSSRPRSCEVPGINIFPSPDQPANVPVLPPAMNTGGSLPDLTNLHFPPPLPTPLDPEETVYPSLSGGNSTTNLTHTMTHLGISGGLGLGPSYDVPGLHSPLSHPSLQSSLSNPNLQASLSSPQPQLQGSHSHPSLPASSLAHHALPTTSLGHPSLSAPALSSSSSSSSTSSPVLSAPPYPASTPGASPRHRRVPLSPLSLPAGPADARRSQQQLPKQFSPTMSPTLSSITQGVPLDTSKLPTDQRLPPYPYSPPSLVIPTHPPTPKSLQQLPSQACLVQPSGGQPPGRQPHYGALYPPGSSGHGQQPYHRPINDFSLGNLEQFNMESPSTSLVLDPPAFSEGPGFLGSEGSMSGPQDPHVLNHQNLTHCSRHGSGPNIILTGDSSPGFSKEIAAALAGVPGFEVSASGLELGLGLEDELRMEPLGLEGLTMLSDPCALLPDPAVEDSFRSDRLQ
substance,measurement,value
HA-tagged calcineurin A (Calna),"glucagon-dependent dephosphorylation of CRTC2, nuclear translocation, CRE-luc activation","mutation of both motifs disrupted the glucagon-dependent dephosphorylation of CRTC2 (FIG. 33B) and prevented its nuclear translocation (FIG. 38C), thereby down-regulating CRE-luc activation"
